Data reported in patent US20060257410A1 (CHEMOCENTRYX, published 2006).

T1: CXCR2 (UniProt P25025 1-360, limits assumed)
T1 construct: whole, on cells
T1 sequence (looked up): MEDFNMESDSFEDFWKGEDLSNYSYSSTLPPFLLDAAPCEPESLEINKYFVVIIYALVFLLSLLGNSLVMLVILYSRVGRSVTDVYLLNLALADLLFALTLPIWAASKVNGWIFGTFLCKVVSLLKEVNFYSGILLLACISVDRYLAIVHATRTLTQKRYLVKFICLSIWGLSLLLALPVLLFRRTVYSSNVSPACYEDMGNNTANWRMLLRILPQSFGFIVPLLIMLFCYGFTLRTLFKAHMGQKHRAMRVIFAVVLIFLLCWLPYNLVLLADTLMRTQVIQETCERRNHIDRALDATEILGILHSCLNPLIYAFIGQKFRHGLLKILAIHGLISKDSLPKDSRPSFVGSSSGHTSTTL


Key:
[1] = target: T2, mouse homolog of CCX CKR2 (mouse, UniProt P56485 1-362); test: IHC on fixed paraffin embedded tissue sections
T2 construct: whole, on cells; also called mouse CCX-CKR2
T2 sequence (P56485 whole entry): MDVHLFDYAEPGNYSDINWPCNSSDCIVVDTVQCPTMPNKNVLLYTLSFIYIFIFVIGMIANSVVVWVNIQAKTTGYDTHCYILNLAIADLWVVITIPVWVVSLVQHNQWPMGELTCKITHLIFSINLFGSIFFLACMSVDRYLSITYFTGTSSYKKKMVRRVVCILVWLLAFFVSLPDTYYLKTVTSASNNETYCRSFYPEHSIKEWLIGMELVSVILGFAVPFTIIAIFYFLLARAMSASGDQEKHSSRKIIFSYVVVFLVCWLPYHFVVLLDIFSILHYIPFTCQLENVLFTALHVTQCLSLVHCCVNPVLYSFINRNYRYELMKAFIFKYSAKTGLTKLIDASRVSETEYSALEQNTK

CXCR2 = target: T1, CXCR2; test: flow cytometry on transfected HEK 293 cells

binding result [1]	binding result (CXCR2)	Binder
binds	no binding	monoclonal antibody 6E10 (antibody, V domains shown, Mouse hybridoma monoclonal antibody raised by gene gun inoculation with CCX-CKR2 cDNA) VH: EVKLDETGGGLVQPGRPMKLSCVASGFTFSDYWMNWVRQSPEKGLEWVGQIRNKPYNYETYYSDSVKGRFTISRDDSKSSVYLQMNNLRTEDTGIYYCTSLRYWGQGTLVTVSA VL: DIVMTQSPSSLTVTAGEKVTMSCKSSHSLLNSGIQKNFLTWYQQKPGQPPKVLIYWAFTRESGVPERFTGSGSGTDFTLTISSVQAEDLAVYYCQSDYTYPFTFGSGTKLEIKR
binds	no binding	monoclonal antibody 11G8 (antibody, V domains shown, Mouse hybridoma monoclonal antibody raised by gene gun inoculation with CCX-CKR2 cDNA) VH: EVKLVESGGDLVQPGGSLKLSCATSGFTFSDYYMFWVRQTPEKRLEWVAYITNGGDRSYYSDTVTGRFIISRDNAKNTLYLQMSRLKSEDTAMYYCARQGNWAAWFVYWGQGTLVTVSA VL: DVLMTQTPLSLPVSLGDQASISCRSSHYIVHSDGNTYLEWYLQKPGQSPKLLIYKVSNRFSGVPDRFSGSGSGTDFTLKISRVEAEDLGIYYCFQGSHVPLTFGAGTKLELKR
